Experimental data taken from the supplement of paper PMC11246515.
± gives the standard deviation of the averaged measurements.

Assay: total protein half-life in vivo (active degradation + dilution); higher = more stable protein
[1] = E. coli NCM3722 delta-clpP delta-lon delta-hslV, growth: N-lim chemostat, doubling time 6 h
[2] = E. coli NCM3722 delta-clpP, growth: N-lim chemostat, doubling time 6 h
[3] = E. coli NCM3722 delta-hslV, growth: N-lim chemostat, doubling time 6 h
[4] = E. coli NCM3722 delta-lon, growth: N-lim chemostat, doubling time 6 h
[5] = E. coli NCM3722 delta-smpB, growth: N-lim chemostat, doubling time 6 h
[6] = wild type E. coli NCM3722, growth: C-lim chemostat, doubling time 3 h
[7] = wild type E. coli NCM3722, growth: C-lim chemostat, doubling time 6 h
[8] = wild type E. coli NCM3722, growth: C-lim chemostat, doubling time 12 h
[9] = wild type E. coli NCM3722, growth: N-lim chemostat, doubling time 6 h
[10] = wild type E. coli NCM3722, growth: N-lim chemostat, doubling time 12 h
[11] = wild type E. coli NCM3722, growth: P-lim chemostat, doubling time 6 h
[12] = wild type E. coli NCM3722, growth: P-lim chemostat, doubling time 12 h

| Sequence | total protein half-life in vivo [1] | total protein half-life in vivo [2] | total protein half-life in vivo [3] | total protein half-life in vivo [4] | total protein half-life in vivo [5] | total protein half-life in vivo [6] | total protein half-life in vivo [7] | total protein half-life in vivo [8] | total protein half-life in vivo [9] | total protein half-life in vivo [10] | total protein half-life in vivo [11] | total protein half-life in vivo [12] |
| --- | --- | --- | --- | --- | --- | --- | --- | --- | --- | --- | --- | --- |
| MLIIETLPLLRQQIRRLRMEGKRVALVPTMGNLHDGHMKLVDEAKARADVVVVSIFVNPMQFDRPEDLARYPRTLQEDCEKLNKRKVDLVFAPSVKEIYPNGTETHTYVDVPGLSTMLEGASRPGHFRGVSTIVSKLFNLVQPDIACFGEKDFQQLALIRKMVADMGFDIEIVGVPIMRAKDGLALSSRNGYLTAEQRKIAPGLYKVLSSIADKLQAGERDLDEIITIAGQELNEKGFRADDIQIRDADTLLEVSETSKRAVILVAAWLGDARLIDNKMVELA | 5.42 ± 0.33 h | 5.17 ± 0.93 h | 4.941 ± 0.045 h | 5.34 ± 0.1 h | 4.98 ± 0.26 h | 3.1 ± 0.28 h | 5.5 ± 0.056 h | 11.8 ± 2.4 h | 4.868 ± 0.016 h | 8.38 ± 0.16 h | 5.774 ± 0.017 h | 12.5 ± 0.45 h |
| MTTYDRNRNAITTGSRVMVSGTGHTGKILSIDTEGLTAEQIRRGKTVVVEGCEEKLAPLDLIRLGMN | 4.22 ± 0.059 h |  | 4.25 ± 0.64 h | 4.53 ± 0.13 h | 4.42 ± 0.76 h | 2.88 ± 0.38 h | 4.16 ± 0.068 h | 5.42 ± 0.38 h | 4.075 ± 0.023 h | 6.36 ± 0.21 h | 4.52 ± 0.25 h | 9.35 ± 0.55 h |
| MKQLWFAMSLVTGSLLFSANASATPASGALLQQMNLASQSLNYELSFISINKQGVESLRYRHARLDNRPLAQLLQMDGPRREVVQRGNEISYFEPGLEPFTLNGDYIVDSLPSLIYTDFKRLSPYYDFISVGRTRIADRLCEVIRVVARDGTRYSYIVWMDTESKLPMRVDLLDRDGETLEQFRVIAFNVNQDISSSMQTLAKANLPPLLSVPVGEKAKFSWTPTWLPQGFSEVSSSRRPLPTMDNMPIESRLYSDGLFSFSVNVNRATPSSTDQMLRTGRRTVSTSVRDNAEITIVGELPPQTAKRIAENIKFGAAQ [P0AFX9] |  | 6.16 ± 0.25 h | 6.13 ± 0.069 h | 5.896 ± 0.045 h | 5.8 ± 0.49 h | 2.96 ± 0.22 h | 6.16 ± 0.61 h | 10.4 ± 0.19 h | 6.73 ± 0.14 h | 13.2 ± 1.5 h | 5.88 ± 0.69 h | 12 ± 0.74 h |
| MTDMNILDLFLKASLLVKLIMLILIGFSIASWAIIIQRTRILNAAAREAEAFEDKFWSGIELSRLYQESQGKRDNLTGSEQIFYSGFKEFVRLHRANSHAPEAVVEGASRAMRISMNRELENLETHIPFLGTVGSISPYIGLFGTVWGIMHAFIALGAVKQATLQMVAPGIAEALIATAIGLFAAIPAVMAYNRLNQRVNKLELNYDNFMEEFTAILHRQAFTVSESNKG [P0ABU9] | 5.8 ± 0.98 h | 6.17 ± 0.19 h | 7.1 ± 0.95 h | 6.83 ± 1.3 h | 6.07 ± 0.051 h | 3.13 ± 0.22 h | 6.078 ± 0.021 h | 11.9 ± 1.4 h | 5.74 ± 0.16 h | 11.6 ± 1.6 h | 5.93 ± 0.14 h | 12.7 ± 0.76 h |
| MQRARCYLIGETAVVLELEPPVTLASQKRIWRLAQRLVDMPNVVEAIPGMNNITVILRNPESLALDAIERLQRWWEESEALEPESRFIEIPVVYGGAGGPDLAVVAAHCGLSEKQVVELHSSVEYVVWFLGFQPGFPYLGSLPEQLHTPRRAEPRLLVPAGSVGIGGPQTGVYPLATPGGWQLIGHTSLSLFDPARDEPILLRPGDSVRFVPQKEGVC [P0AAV4] | 5.48 ± 0.23 h | 5.44 ± 0.087 h | 5.73 ± 0.79 h | 7.2 ± 0.64 h | 4.972 ± 0.042 h | 3.51 ± 0.27 h | 6.26 ± 0.1 h | 11.3 ± 0.43 h | 5.41 ± 0.97 h | 11.3 ± 0.39 h | 6.04 ± 0.51 h |  |
